This passage reports EC50 results from US20250002610A1 (Genmab, published 2025).

Experiment [1] concerns the target T1, human FAPα (Fibroblast activation protein alpha), cell surface expressed (human, UniProt Q12884 1-760).
T1 construct: Endogenous on human lung fibroblasts and CAFs
T1 sequence: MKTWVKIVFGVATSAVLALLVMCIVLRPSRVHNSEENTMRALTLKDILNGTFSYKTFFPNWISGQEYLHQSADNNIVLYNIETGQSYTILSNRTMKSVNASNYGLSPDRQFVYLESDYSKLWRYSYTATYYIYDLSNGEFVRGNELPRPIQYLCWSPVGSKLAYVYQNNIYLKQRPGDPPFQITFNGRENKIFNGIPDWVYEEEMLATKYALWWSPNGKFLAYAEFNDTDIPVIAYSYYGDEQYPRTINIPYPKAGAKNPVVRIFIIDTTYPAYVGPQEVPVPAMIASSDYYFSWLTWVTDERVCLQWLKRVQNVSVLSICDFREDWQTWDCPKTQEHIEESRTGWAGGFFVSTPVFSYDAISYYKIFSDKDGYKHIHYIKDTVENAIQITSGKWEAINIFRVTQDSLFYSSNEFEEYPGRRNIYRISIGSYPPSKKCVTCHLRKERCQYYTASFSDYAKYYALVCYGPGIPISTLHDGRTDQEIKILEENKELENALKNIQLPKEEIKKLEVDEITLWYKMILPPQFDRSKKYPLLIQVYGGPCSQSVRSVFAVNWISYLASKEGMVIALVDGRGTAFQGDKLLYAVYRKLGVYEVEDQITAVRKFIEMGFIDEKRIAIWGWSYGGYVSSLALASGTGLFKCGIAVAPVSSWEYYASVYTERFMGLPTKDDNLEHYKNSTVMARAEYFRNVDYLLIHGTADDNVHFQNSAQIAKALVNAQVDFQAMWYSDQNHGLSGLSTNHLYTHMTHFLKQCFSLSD
Description: flow cytometry, Expi293F cells expressing human FAPα, n = 2. The procedure: (§1) Binding of BisG1-FAPα-FERL/DR4-FERR, BisG1-FAPα-FEAL/b12-FEAR and IgG1-FAPα-FERL to FAPα of species commonly used for nonclinical toxicology studies was assessed by flow cytometry using Expi293F cells transiently expressing FAPα from different animal species. IgG1-b12 was included as negative control.
(§2) Expi293F cells expressing recombinant FAPα from various species (human, cynomolgus monkey, dog, pig, rat or mouse) were seeded (20,000 cells/well) in 96-Well round bottom plates (Greiner Bio-one, Cat #650101). Antibody dilutions were prepared using FACS buffer, consisting of PBS (Capricorn Scientific, Cat #PBS-10XA, diluted to 1×PBS in distilled water)+1% BSA (Roche, Cat #10735086001)+0.02% Sodium Azide (Bio-World, Cat #41920044-3). Plates were centrifuged, supernatant was removed, and cells were resuspended in 100 μL of antibody dilutions (concentration range 30-0.00017 μg/mL with three-fold serial dilutions using FACS buffer) of BisG1-FAPα-FERL/DR4-FERR, BisG1-FAPα-FEAL/b12-FEAR, IgG1-FAPα-FERL and IgG1-b12 and incubated for 30 min at 4° C. […] After 30 min incubation at 4° C., cells were washed with FACS buffer and resuspended in FACS buffer supplemented with TO-PRO-3 Iodide viability marker (Invitrogen, Cat #T3605, diluted 1:4,000). Antibody binding to viable cells (gMFI of PE on TO-PRO-3 negative cells) was analyzed by flow cytometry on a FACS Celesta and FACS_Diva software (first two experiments) or iQue® 3 and FlowJo software (last experiment). gMFI was determined and visualized using GraphPad Prism. Binding curves were analyzed using nonlinear regression analysis. The concentration (pg/mL) at which 50% of the maximal effect was observed (EC₅₀) was derived from the fitted curves.
Background: In flow cytometry, cells or beads pass a laser one at a time.

For experiment [2], the target named is T2, cynomolgus monkey FAPα on Expi293F cells (cynomolgus monkey (Macaca fascicularis), UniProt Q12884 1-760 (human entry)).
T2 sequence: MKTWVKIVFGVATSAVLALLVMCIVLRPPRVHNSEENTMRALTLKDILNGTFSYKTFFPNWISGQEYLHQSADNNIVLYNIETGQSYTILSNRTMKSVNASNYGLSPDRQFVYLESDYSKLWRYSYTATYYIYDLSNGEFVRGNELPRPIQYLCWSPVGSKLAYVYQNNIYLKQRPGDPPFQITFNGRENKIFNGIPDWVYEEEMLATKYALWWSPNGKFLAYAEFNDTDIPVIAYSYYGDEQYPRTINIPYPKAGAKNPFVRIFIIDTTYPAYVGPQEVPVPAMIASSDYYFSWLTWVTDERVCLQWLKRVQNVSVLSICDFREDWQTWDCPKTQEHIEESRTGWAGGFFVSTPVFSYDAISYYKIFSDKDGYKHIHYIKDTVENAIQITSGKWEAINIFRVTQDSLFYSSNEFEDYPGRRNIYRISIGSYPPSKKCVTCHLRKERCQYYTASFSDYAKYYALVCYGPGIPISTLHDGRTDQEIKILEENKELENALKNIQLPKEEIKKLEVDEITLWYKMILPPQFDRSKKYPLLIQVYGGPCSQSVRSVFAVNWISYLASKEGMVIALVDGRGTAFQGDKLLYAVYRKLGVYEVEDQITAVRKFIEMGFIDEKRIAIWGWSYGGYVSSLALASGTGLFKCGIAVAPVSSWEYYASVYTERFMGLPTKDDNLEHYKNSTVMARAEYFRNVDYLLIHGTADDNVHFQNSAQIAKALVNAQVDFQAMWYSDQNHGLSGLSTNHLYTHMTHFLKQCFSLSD
Description: flow cytometry, Expi293F cells expressing cynomolgus monkey FAPα, n = 2. Here is the method:
as §1, §2

The target in experiment [3] is T3, human DR4 (Death Receptor 4), cell surface expressed on human tumor cell lines (human, UniProt O00220 24-468).
T3 construct: also called TNFRSF10A; TRAIL-R1
T3 sequence: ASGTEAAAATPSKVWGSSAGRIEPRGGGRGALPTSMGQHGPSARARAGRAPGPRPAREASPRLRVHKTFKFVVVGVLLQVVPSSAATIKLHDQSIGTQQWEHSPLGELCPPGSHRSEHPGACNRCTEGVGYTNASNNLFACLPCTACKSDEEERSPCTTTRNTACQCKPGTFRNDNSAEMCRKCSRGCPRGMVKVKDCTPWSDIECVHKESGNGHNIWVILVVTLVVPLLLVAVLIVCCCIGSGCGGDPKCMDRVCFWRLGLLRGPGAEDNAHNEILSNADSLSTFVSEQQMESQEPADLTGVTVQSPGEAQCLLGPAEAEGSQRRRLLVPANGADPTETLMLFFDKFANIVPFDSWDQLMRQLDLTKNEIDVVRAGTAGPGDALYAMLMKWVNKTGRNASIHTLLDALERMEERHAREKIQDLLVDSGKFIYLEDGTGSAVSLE
Description: flow cytometry, HCT-15 cells, n = 1.

B1: BisG1-FAPα-FEAL/b12-FEAR (bispecific antibody, human IgG1, kappa)
heavy 1: EVQLLESGGGLVQPGGSPRLSCEASGFTFSSYALSWVRQAPGKGLEWVSAISGSGGGRYYADSVKGRFTISRDNSKNTLFLQMNSLRAEDTAVYYCAKEGYSSSGTYWDHWGQGTLVTVSSASTKGPSVFPLAPSSKSTSGGTAALGCLVKDYFPEPVTVSWNSGALTSGVHTFPAVLQSSGLYSLSSVVTVPSSSLGTQTYICNVNHKPSNTKVDKRVEPKSCDKTHTCPPCPAPEFEGGPSVFLFPPKPKDTLMISRTPEVTCVVVAVSHEDPEVKFNWYVDGVEVHNAKTKPREEQYNSTYRVVSVLTVLHQDWLNGKEYKCKVSNKALPAPIEKTISKAKGQPREPQVYTLPPSREEMTKNQVSLTCLVKGFYPSDIAVEWESNGQPENNYKTTPPVLDSDGSFLLYSKLTVDKSRWQQGNVFSCSVMHEALHNHYTQKSLSLSPG
light 1: AIQMTQSPSSVSASVGDRVTITCRASQGVSSWLAWYQQKPGRAPKLLIYVASTLQSGVPSRFSGSGSGTDFTLTINSLQPEDFATYYCQQANSFPPTFGQGTRLEMKRTVAAPSVFIFPPSDEQLKSGTASVVCLLNNFYPREAKVQWKVDNALQSGNSQESVTEQDSKDSTYSLSSTLTLSKADYEKHKVYACEVTHQGLSSPVTKSFNRGEC
heavy 2: QVQLVQSGAEVKKPGASVKVSCQASGYRFSNFVIHWVRQAPGQRFEWMGWINPYNGNKEFSAKFQDRVTFTADTSANTAYMELRSLRSADTAVYYCARVGPYSWDDSPQDNYYMDVWGKGTTVIVSSASTKGPSVFPLAPSSKSTSGGTAALGCLVKDYFPEPVTVSWNSGALTSGVHTFPAVLQSSGLYSLSSVVTVPSSSLGTQTYICNVNHKPSNTKVDKRVEPKSCDKTHTCPPCPAPEFEGGPSVFLFPPKPKDTLMISRTPEVTCVVVAVSHEDPEVKFNWYVDGVEVHNAKTKPREEQYNSTYRVVSVLTVLHQDWLNGKEYKCKVSNKALPAPIEKTISKAKGQPREPQVYTLPPSREEMTKNQVSLTCLVKGFYPSDIAVEWESNGQPENNYKTTPPVLDSDGSFFLYSRLTVDKSRWQQGNVFSCSVMHEALHNHYTQKSLSLSPG
light 2: EIVLTQSPGTLSLSPGERATFSCRSSHSIRSRRVAWYQHKPGQAPRLVIHGVSNRASGISDRFSGSGSGTDFTLTITRVEPEDFALYYCQVYGASSYTFGQGTKLERKRTVAAPSVFIFPPSDEQLKSGTASVVCLLNNFYPREAKVQWKVDNALQSGNSQESVTEQDSKDSTYSLSSTLTLSKADYEKHKVYACEVTHQGLSSPVTKSFNRGEC
notes: Fab-arm exchange of IgG1-FAPα-FEAL and IgG1-b12-FEAR
Usually EC50 stands for the concentration needed to bring the measured effect to its halfway point. With B1, the EC50 in experiment [1] and in experiment [2] was 0.16 µg/mL throughout.

B2: IgG1-FAPα-FERL (antibody)
heavy: EVQLLESGGGLVQPGGSPRLSCEASGFTFSSYALSWVRQAPGKGLEWVSAISGSGGGRYYADSVKGRFTISRDNSKNTLFLQMNSLRAEDTAVYYCAKEGYSSSGTYWDHWGQGTLVTVSSASTKGPSVFPLAPSSKSTSGGTAALGCLVKDYFPEPVTVSWNSGALTSGVHTFPAVLQSSGLYSLSSVVTVPSSSLGTQTYICNVNHKPSNTKVDKRVEPKSCDKTHTCPPCPAPEFERGPSVFLFPPKPKDTLMISRTPEVTCVVVDVSHEDPEVKFNWYVDGVEVHNAKTKPREEQYNSTYRVVSVLTVLHQDWLNGKEYKCKVSNKALPAPIEKTISKAKGQPREPQVYTLPPSREEMTKNQVSLTCLVKGFYPSDIAVEWESNGQPENNYKTTPPVLDSDGSFLLYSKLTVDKSRWQQGNVFSCSVMHEALHNHYTQKSLSLSPG
light: AIQMTQSPSSVSASVGDRVTITCRASQGVSSWLAWYQQKPGRAPKLLIYVASTLQSGVPSRFSGSGSGTDFTLTINSLQPEDFATYYCQQANSFPPTFGQGTRLEMKRTVAAPSVFIFPPSDEQLKSGTASVVCLLNNFYPREAKVQWKVDNALQSGNSQESVTEQDSKDSTYSLSSTLTLSKADYEKHKVYACEVTHQGLSSPVTKSFNRGEC
notes: Bivalent monoclonal IgG1 kappa
On to B2, for which the EC50 in experiment [1] is 0.12 µg/mL; in experiment [2], 0.11 µg/mL.

B3: IgG1-DR4-FERR (antibody, V domains shown)
VH: QVQLQESGPGLVKPSGTLSLTCAVSGGSISSYSWWSWIRQPPGKGLEWIGELYHSGSTNYNPSLKSRVTISVDKSKNQFSLKLRSVTAADTAVYYCVRGVATIDYWGQGTLVTVSS
VL: QSALTQPPSASGSPGQSVTISCTGTSSDVGGYNFVSWYQQDPGKAPKLLIYEVTKRPSGVPDRFSGSKSGNTASLTVSGLQAEDEADYYCSSYAGSNNVMFGGGTKLTVLG
notes: Bivalent monoclonal IgG1 lambda
In turn, B3 came in with an EC50 in experiment [3] of 0.18 µg/mL.
